For one substance, percent dissociated from mTOR (Thorase KO brain) and percent dissociated from mTOR (wild type brain) results are on record in PMC9385847.

The target in the test is endogenous mTOR (mechanistic target of rapamycin) (mouse (endogenous in brain and MEFs)) (UniProt Q9JLN9). Briefly: co-IP; anti-mTOR on Protein G beads; whole brain lysates of wild type or Thorase KO mice in buffer A, 1% Triton X-100, with or without 2 mM ADP, ATP or ATPγS, 4 °C; immunoblot.

“endogenous S6K (from UniProt Q8BSK8 1-525) (enzyme)” returned a percent dissociated from mTOR (Thorase KO brain) of 20% and a percent dissociated from mTOR (wild type brain) of 80%.
